In publication PMC3135484 (Molecular Biology of the Cell, 2011):

T1: Vps16 (individual HOPS subunit, TAP-purified) (yeast (S. cerevisiae), UniProt Q03308 1-798)
T1 sequence: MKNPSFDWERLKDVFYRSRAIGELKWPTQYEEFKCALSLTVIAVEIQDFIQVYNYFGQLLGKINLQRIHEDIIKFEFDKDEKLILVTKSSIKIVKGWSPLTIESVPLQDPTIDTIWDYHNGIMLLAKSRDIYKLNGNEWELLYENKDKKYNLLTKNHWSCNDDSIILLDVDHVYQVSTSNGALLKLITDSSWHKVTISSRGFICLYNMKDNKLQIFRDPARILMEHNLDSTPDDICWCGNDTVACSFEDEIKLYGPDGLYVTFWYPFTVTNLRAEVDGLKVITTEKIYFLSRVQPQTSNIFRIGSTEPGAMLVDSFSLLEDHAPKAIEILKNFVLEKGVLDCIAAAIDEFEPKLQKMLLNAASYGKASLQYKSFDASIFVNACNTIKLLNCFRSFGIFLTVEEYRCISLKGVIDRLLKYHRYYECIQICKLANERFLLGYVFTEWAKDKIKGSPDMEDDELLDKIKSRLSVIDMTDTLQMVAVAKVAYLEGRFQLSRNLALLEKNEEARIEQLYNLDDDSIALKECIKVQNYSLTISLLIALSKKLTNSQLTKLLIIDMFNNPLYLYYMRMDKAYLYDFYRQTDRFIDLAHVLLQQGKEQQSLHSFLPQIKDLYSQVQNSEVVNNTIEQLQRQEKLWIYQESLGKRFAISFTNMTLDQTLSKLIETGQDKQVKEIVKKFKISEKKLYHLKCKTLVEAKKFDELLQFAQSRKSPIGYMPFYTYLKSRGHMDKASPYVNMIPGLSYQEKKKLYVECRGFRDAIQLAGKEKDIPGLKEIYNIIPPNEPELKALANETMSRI

T2: His-tagged Vam7 (1-316) (S. cerevisiae, UniProt P32912 1-316)
T2 sequence: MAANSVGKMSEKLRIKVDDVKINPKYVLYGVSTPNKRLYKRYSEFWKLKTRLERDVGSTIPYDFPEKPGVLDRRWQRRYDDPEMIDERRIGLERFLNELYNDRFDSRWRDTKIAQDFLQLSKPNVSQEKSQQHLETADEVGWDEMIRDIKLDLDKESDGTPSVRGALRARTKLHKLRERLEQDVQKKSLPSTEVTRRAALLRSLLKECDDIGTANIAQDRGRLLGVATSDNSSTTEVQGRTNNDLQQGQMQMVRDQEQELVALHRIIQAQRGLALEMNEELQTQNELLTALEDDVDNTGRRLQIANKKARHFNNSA

B1: SNARE complex assembled on GST-Vam7 SD with Vam3, Vti1 and Ykt6 (complex)
chain 1: PSTEVTRRAALLRSLLKECDDIGTANIAQDRGRLLGVATSDNSSTTEVQGRTNNDLQQGQMQMVRDQEQELVALHRIIQAQRGLALEMNEELQTQNELLTALEDDVDNTGRRLQIANKKARHFNNSA
chain 2: MSFFDIEAQSSKGNSQQEPQFSTNQKTKELSNLIETFAEQSRVLEKECTKIGSKRDSKELRYKIETELIPNCTSVRDKIESNILIHQNGKLSADFKNLKTKYQSLQQSYNQRKSLFPLKTPISPGTSKERKDIHPRTEAVRQDPESSYISIKVNEQSPLLHNEGQHQLQLQEEQEQQQQGLSQEELDFQTIIHQERSQQIGRIHTAVQEVNAIFHQLGSLVKEQGEQVTTIDENISHLHDNMQNANKQLTRADQHQRDRNKCGK
chain 3: MSSLLISYESDFKTTLEQAKASLAEAPSQPLSQRNTTLKHVEQQQDELFDLLDQMDVEVNNSIGDASERATYKAKLREWKKTIQSDIKRPLQSLVDSGDRDRLFGDLNASNIDDDQRQQLLSNHAILQKSGDRLKDASRIANETEGIGSQIMMDLRSQRETLENARQTLFQADSYVDKSIKTLKTMTRR
chain 4: MRIYYIGVFRSGGEKALELSEVKDLSQFGFFERSSVGQFMTFFAETVASRTGAGQRQSIEEGNYIGHVYARSEGICGVLITDKEYPVRPAYTLLNKILDEYLVAHPKEEWADVTETNDALKMKQLDTYISKYQDPSQADAIMKVQQELDETKIVLHKTIENVLQRGEKLDNLVDKSESLTASSKMFYKQAKKSNSCCIIM
B2: Q-SNARE complex assembled on GST-Vam7 SD with Vam3 and Vti1 (complex)
chain 1: B1 chain 1
chain 2: B1 chain 2
chain 3: B1 chain 3
B3: His-tagged Ykt6 (1-200) (natural protein)
chain: B1 chain 4
B4: His-tagged Vti1 (1-189, ΔTMD) (domain or fragment)
chain: B1 chain 3
B5: minimal SNARE complex assembled on GST-Vam7 SD with Vam3ΔN, Vti1 and Ykt6 (complex)
chain 1: B1 chain 1
chain 2: ESSYISIKVNEQSPLLHNEGQHQLQLQEEQEQQQQGLSQEELDFQTIIHQERSQQIGRIHTAVQEVNAIFHQLGSLVKEQGEQVTTIDENISHLHDNMQNANKQLTRADQHQRDRNKCGK
chain 3: B1 chain 3
chain 4: B1 chain 4
B6: GST-tagged Vam7 (1-316) (natural protein)
chain: T2 sequence
B7: GST-tagged Vam7 PX domain (1-129) (domain or fragment)
chain: MAANSVGKMSEKLRIKVDDVKINPKYVLYGVSTPNKRLYKRYSEFWKLKTRLERDVGSTIPYDFPEKPGVLDRRWQRRYDDPEMIDERRIGLERFLNELYNDRFDSRWRDTKIAQDFLQLSKPNVSQEK
B8: GST-tagged Vam3 (Vam3 1-260, ΔTMD) (domain or fragment)
chain: MSFFDIEAQSSKGNSQQEPQFSTNQKTKELSNLIETFAEQSRVLEKECTKIGSKRDSKELRYKIETELIPNCTSVRDKIESNILIHQNGKLSADFKNLKTKYQSLQQSYNQRKSLFPLKTPISPGTSKERKDIHPRTEAVRQDPESSYISIKVNEQSPLLHNEGQHQLQLQEEQEQQQQGLSQEELDFQTIIHQERSQQIGRIHTAVQEVNAIFHQLGSLVKEQGEQVTTIDENISHLHDNMQNANKQLTRADQHQRDRN

What was measured:
Assay in all cases: pull-down
[1] = target: HOPS (homotypic fusion and protein sorting) complex (yeast (S. cerevisiae), UniProt P38959;Q07468;P20795;P12868;Q03308;P27801)
[2] = target: B8
[3] = target: T1, Vps16 (individual HOPS subunit, …)
His-tagged Vam7 (1-316) = target: T2, His-tagged Vam7 (1-316)

Row | Binder | binding result [1] | further results
1 | B1 | binds | 
2 | B2 | binds | 
3 | B3 |  | binding result [2]: binds
4 | B4 |  | binding result [2]: binds
5 | B5 | binds | 
6 | B6 | binds | binding result [3]: binds
7 | B7 | binds | 
8 | B8 |  | binding result (His-tagged Vam7 (1-316)): binds
